The values below come from publication PMC12052844 (iScience, 2025).

Experiment [1] addresses EphA4 receptor on cells (UniProt Q03137). The experiment in a line: flow cytometry on cells.
Experiment [2] has as its target T1, full-length wild-type EphB2 on the surface of Expi293F cells (mouse, UniProt P54763-3).
T1 sequence: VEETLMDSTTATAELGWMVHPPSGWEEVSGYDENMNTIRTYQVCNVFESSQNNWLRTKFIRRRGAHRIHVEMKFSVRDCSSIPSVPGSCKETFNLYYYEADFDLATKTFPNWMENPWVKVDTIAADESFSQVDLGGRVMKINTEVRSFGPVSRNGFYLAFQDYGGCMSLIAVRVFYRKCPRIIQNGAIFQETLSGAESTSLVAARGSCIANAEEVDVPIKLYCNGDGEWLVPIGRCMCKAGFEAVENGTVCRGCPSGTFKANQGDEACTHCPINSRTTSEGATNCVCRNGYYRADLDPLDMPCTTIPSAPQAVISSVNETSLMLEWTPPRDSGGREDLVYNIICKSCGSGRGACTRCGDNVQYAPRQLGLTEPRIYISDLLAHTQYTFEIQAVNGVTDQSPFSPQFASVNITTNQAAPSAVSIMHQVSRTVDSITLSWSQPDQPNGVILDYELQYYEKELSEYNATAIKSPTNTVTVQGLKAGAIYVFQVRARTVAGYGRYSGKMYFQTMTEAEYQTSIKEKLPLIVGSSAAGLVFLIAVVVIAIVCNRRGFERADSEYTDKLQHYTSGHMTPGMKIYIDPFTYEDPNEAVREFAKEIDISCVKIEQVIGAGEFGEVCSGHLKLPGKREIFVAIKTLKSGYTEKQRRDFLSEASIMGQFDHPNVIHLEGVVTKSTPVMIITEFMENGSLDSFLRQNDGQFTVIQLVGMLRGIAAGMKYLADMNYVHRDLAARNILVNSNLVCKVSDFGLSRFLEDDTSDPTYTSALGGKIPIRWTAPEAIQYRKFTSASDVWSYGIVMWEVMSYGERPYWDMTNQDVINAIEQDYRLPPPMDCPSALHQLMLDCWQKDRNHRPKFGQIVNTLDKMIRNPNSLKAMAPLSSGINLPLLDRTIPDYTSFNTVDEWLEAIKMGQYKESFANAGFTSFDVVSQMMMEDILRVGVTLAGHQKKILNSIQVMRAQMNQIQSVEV
The experiment in a line: flow cytometry on cells.

EphA4 receptor on cells, sequence (Q03137 20-986): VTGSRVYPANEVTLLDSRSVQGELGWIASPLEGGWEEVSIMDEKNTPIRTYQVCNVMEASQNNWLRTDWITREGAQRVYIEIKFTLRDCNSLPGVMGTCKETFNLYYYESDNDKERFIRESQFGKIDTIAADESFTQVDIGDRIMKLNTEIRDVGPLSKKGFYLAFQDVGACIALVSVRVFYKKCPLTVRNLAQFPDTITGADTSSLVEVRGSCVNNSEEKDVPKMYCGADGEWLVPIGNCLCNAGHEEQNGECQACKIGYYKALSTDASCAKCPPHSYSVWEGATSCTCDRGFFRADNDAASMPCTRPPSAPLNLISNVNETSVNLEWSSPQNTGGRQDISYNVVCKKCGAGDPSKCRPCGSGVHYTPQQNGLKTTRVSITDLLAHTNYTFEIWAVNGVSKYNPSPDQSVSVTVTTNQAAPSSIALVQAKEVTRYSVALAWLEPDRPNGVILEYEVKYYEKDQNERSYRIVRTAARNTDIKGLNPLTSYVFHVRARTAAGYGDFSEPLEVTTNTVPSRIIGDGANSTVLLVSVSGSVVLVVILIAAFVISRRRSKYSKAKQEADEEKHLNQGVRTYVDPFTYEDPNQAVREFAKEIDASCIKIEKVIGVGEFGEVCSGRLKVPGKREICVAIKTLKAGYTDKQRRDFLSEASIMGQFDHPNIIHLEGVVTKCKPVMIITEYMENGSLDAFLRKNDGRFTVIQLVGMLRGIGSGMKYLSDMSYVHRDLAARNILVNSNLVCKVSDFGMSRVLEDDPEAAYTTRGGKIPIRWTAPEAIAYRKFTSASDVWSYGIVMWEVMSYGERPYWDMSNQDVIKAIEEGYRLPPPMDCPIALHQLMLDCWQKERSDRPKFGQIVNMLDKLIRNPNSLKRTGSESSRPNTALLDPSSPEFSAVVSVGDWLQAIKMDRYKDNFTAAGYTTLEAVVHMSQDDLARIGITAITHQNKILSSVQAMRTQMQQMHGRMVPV

Molecule “pre-clustered ephrin-B2 (receptor binding domain of murine ephrin-B2, residues 30-170, biotinylated) (from UniProt P52800 30-170) (ligand)” displayed an equilibrium dissociation constant (Kd) in experiment [1] of 501 nM.

B1: ephrin-B1 (ligand)
chain: ATPLAKNLEPVSWSSLNPKFLSGKGLVIYPKIGDKLDIICPRAEAGRPYEYYKLYLVRPEQAAACSTVLDPNVLVTCNKPHQEIRFTIKFQEFSPNYMGLEFKKYHDYYITSTSNGSLEGLENREGGVCRTRTMKIVMKVGQDPNAVTPEQLTTSRPSKESDNTVKTATQAPGRGSQGDSDGKHETVNQEEKSGPGAGGGGSGDSDSFFNSK
For the molecule B1, in experiment [2], the Kd was 6.64 nM.

B2: pre-clustered ephrin-A5 (receptor binding domain of murine ephrin-A5, residues 28-164, biotinylated) (ligand)
chain: VADRYAVYWNSSNPRFQRGDYHIDVCINDYLDVFCPHYEDSVPEDKTERYVLYMVNFDGYSACDHTSKGFKRWECNRPHSPNGPLKFSEKFQLFTPFSLGFEFRPGREYFYISSAIPDNGRRSCLKLKVFVRPTNSC
modifications: biotin on the Avi tag (BirA)
In the case of B2, the Kd in experiment [2] was found to be 112 nM.

B3: pre-clustered ephrin-B2 (receptor binding domain of murine ephrin-B2, residues 30-170, biotinylated) (ligand)
chain: SIVLEPIYWNSSNSKFLPGQGLVLYPQIGDKLDIICPKVDSKTVGQYEYYKVYMVDKDQADRCTIKKENTPLLNCARPDQDVKFTIKFQEFSPNLWGLEFQKNKDYYIISTSNGSLEGLDNQEGGVCQTRAMKILMKVGQD
modifications: biotin on the Avi tag (BirA)
In experiment [2], B3 came in with a dissociation constant (Kd) of 3.53 nM.
